Data on two variants can be found in IntAct's records for PubMed 9647694.

The labels stand for the following.
B1: ATP-sensitive inward rectifier potassium channel 10 (Mus musculus), Q9JM63 (parent)
chain: MTSVAKVYYSQTTQTESRPLVAPGIRRRRVLTKDGRSNVRMEHIADKRFLYLKDLWTTFIDMQWRYKLLLFSATFAGTWFLFGVVWYLVAVAHGDLLELGPPANHTPCVVQVHTLTGAFLFSLESQTTIGYGFRYISEECPLAIVLLIAQLVLTTILEIFITGTFLAKIARPKKRAETIRFSQHAVVASHNGKPCLMIRVANMRKSLLIGCQVTGKLLQTHQTKEGENIRLNQVNVTFQVDTASDSPFLILPLTFYHVVDETSPLKDLPLRSGEGDFELVLILSGTVESTSATCQVRTSYLPEEILWGYEFTPAISLSASGKYIADFSLFDQVVKVASPSGLRDSTVRYGDPEKLKLEESLREQAEKEGSALSVRISNV

Variants of B1 are the subject of the assay. Conditions: with inadl_mouse Patj.
S377G: the “effect of a mutation on the interaction” value is on record as “disrupting interaction”.
For V379A, the “effect of a mutation on the interaction” value is given as “disrupting interaction”.
